In publication PMC9379584 (iScience, 2022):
Values joined by “and” are separate entries in the source; they are usually repeats but may differ in a detail not shown here. Identical values can stand only once. Like-named read-outs stand apart in the source and are kept apart here. Each block holds one molecule with its values, some of them ahead of it.

Experiments:
INS-1E cells [1] = assay: HTRF cAMP assay in INS-1E cells; assay type: cell-based, rat; conditions: normalized to DA's efficacy in parental INS-1E
[2] = tested on: α2A-AR KO INS-1E-derived cell line; assay: HTRF cAMP assay in α2A-AR KO INS-1E-derived cells; assay type: cell-based, rat
α2A-AR [3] = biological target: T1, α2A-AR (Rattus norvegicus, UniProt P22909); assay: cell-based; conditions: nanoBRET
T1 sequence (P22909 1-465): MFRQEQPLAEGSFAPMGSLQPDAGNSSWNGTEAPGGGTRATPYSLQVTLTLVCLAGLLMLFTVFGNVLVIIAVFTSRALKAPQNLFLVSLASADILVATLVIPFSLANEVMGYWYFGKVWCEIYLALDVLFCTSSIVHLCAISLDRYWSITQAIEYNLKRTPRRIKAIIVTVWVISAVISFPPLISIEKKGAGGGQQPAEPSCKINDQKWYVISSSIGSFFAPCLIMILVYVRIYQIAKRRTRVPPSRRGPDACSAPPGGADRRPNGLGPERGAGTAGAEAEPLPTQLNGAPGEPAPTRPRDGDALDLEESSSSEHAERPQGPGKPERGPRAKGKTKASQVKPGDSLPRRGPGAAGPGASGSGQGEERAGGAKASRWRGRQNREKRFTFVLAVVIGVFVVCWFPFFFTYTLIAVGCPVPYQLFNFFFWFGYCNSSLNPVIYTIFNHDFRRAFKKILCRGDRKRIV

α2A-AR [4] = biological target: T1, α2A-AR; assay type: cell-based; conditions: nanoBRET
mouse pancreatic islets [5] = conditions: cited from earlier work
INS-1E cells [6] = conditions: cited from earlier work
[7] = biological target: IL6-HiBiT-D2R-HaloTag (human dopamine D2 receptor) (human) (UniProt P14416); assay: FRET or BRET
mouse pancreatic islets [8] = assay: Glucose-stimulated insulin secretion; assay type: cell-based; conditions: read-out: IC50, inhibition of GSIS; wildtype mouse islets, 20 mM glucose, 90 min
INS-1E cells [9] = assay: Glucose-stimulated insulin secretion; assay type: cell-based, rat; conditions: read-out: IC50, inhibition of GSIS; INS-1E, 20 mM glucose, 90 min
[10] = biological target: IL6-HiBiT-α2A-AR-HaloTag (rat α2A-adrenergic receptor) (rat) (UniProt P22909); assay: FRET or BRET
[11] = biological target: IL6-HiBiT-D2R-HaloTag (human dopamine D2 receptor) (human, UniProt P14416 1-443, HaloTag NanoBRET 618 ligand bound to the HaloTag); assay: FRET or BRET
[12] = α2A-AR KO versus parental INS-1E
[13] = read-out: IC50, inhibition of GSIS, ref Aslanoglou et al. (2021)
[14] = read-out: IC50, inhibition of GSIS, ref Aslanoglou et al., 2021

Chain of IL6-HiBiT-D2R-HaloTag (human dopamine D2 receptor) (human) (P14416 whole entry): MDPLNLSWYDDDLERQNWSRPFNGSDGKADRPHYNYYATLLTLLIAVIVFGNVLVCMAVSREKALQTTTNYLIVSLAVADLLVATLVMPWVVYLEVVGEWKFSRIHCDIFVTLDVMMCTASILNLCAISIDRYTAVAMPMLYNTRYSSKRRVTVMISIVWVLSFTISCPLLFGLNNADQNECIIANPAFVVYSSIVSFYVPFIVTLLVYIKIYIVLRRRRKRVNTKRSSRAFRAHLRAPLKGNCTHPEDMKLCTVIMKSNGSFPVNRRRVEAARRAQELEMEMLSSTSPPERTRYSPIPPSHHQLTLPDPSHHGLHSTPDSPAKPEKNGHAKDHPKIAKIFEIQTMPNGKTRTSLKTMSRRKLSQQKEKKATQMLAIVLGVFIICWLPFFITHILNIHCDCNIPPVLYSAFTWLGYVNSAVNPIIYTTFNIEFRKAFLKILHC
Chain of IL6-HiBiT-D2R-HaloTag (human dopamine D2 receptor) (P14416 whole entry): as above

IC50 ([2]; read-out: IC50, inhibition of cAMP production, α2A-AR KO): 1500 nM
EC50 (α2A-AR [3]; EC50, Gαi2 recruitment to α2A-AR, Gαi2): 1040 nM
EC50 (α2A-AR [3]; EC50, Gαi3 recruitment to α2A-AR, Gαi3): 1030 nM
EC50 (α2A-AR [3]; EC50, GαoA recruitment to α2A-AR, GαoA): 836 nM
EC50 (α2A-AR [3]; EC50, GαoB recruitment to α2A-AR, GαoB): 945 nM
EC50 (α2A-AR [3]; EC50, Gαz recruitment to α2A-AR, Gαz): 666 nM
EC50 (α2A-AR [3]; pEC50, GαoB recruitment to α2A-AR, GαoB): 933 nM
β-arrestin1 recruitment to α2A-AR (α2A-AR [4]): negligible recruitment
Molecule: NCCc1ccc(O)c(O)c1 [DA, dopamine]
Emax, inhibition of cAMP production (INS-1E cells [1]): 100.00 % DA
increase of potency in diminishing cAMP by α2A-AR KO [2, 12]: 1.7 fold
reduction of efficacy in lowering cAMP by α2A-AR KO [2, 12]: 57% and 57.2%
Emax, inhibition of cAMP production ([2]; α2A-AR KO, normalized to DA's efficacy in parental INS-1E): 57.15 [46.22–88.79] % DA
IC50 (mouse pancreatic islets [5]; [13]): 1300 nM
IC50 (mouse pancreatic islets [5]; [14]): 1300 nM
pIC50, inhibition of GSIS (mouse pancreatic islets [5]; ref Aslanoglou et al. (2021)): 5.89
IC50 (INS-1E cells [6]; [13]): 1490 nM
IC50 (INS-1E cells [6]; [14]): 1500 nM
pIC50, inhibition of GSIS (INS-1E cells [6]; ref Aslanoglou et al. (2021)): 5.83

EC50 of the agonist NE for recruitment [7]: 4900 nM
EC50 of the agonist bromocriptine for recruitment [7]: 104 nM
Emax of recruitment with bromocriptine (% of the DA response) (% of DA response) [7]: 60
Molecule: NanoLuc-Gαi1(91) (from UniProt P63096 1-354) (natural protein; other documents disagree on this pair)

EC50 of the agonist DA for recruitment [7]: 2.88 nM
EC50 of the agonist NE for recruitment [7]: 25.3 nM
EC50 of the agonist bromocriptine for recruitment [7]: 21.6 nM
Emax of recruitment with bromocriptine (% of the DA response) (% of DA response) [7]: 89.3
Molecule: NanoLuc-Gαi2(91) (from UniProt P04899 1-355) (natural protein; other documents disagree on this pair)

IC50 (mouse pancreatic islets [8]): 7.36 nM
IC50 (INS-1E cells [9]): 9.06 nM
Molecule: Clc1cccc(Cl)c1N=C1NCCN1 [Clonidine, clonidine]

EC50 of the agonist NE for recruitment [7]: 0.07 nM
EC50 of the agonist bromocriptine for recruitment [7]: 4.3 nM
Emax of recruitment with bromocriptine (% of the DA response) (% of DA response) [7]: 66.5
Molecule: NanoLuc-Gαz(91) (from UniProt P19086 1-355) (natural protein; other documents disagree on this pair)

EC50 of the agonist NE for recruitment [7]: 32600 nM
EC50 of the agonist bromocriptine for recruitment [7]: 84.3 nM
Emax of recruitment with bromocriptine (% of the DA response) (% of DA response) [7]: 64.2
Molecule: NanoLuc-Gαi3(91) (from UniProt P08754 1-354) (natural protein; other documents disagree on this pair)

Emax of recruitment with bromocriptine (% of the NE response) (% of NE response) [10]: 15.4
Molecule: NanoLuc-Gαi1(91) (from UniProt P63096 1-354) (natural protein)

Emax of recruitment with bromocriptine (% of the NE response) (% of NE response) [10]: 43.8
Molecule: NanoLuc-Gαi2(91) (from UniProt P04899 1-355) (natural protein)

Emax of recruitment with bromocriptine (% of the NE response) (% of NE response) [10]: 21.2
Molecule: NanoLuc-Gαz(91) (from UniProt P19086 1-355) (natural protein)

Emax of recruitment with bromocriptine (% of the NE response) (% of NE response) [10]: 12.7
Molecule: NanoLuc-Gαi3(91) (from UniProt P08754 1-354) (natural protein)

Emax of recruitment with bromocriptine (% of the DA response) (% of DA response) [7]: 109
Molecule: NanoLuc-GαoA(91) (from UniProt P09471 1-354) (natural protein; other documents disagree on this pair)

Emax of recruitment with bromocriptine (% of the NE response) (% of NE response) [10]: 43
Molecule: NanoLuc-GαoA(91) (from UniProt P09471 1-354) (natural protein)

EC50 of the agonist DA for recruitment [11]: 22.4 nM
EC50 of the agonist NE for recruitment [11]: 139 nM
EC50 of the agonist bromocriptine for recruitment [11]: 0.27 nM
B1: NanoLuc-GαoB(91) (natural protein)
chain: MGCTLSAEERAALERSKAIEKNLKEDGISAAKDVKLLLLGAGESGKSTIVKQMKIIHEDGFSGEDVKQYKPVVYSNTIQSLAAIVRAMDTLGIEYGDKERKADAKMVCDVVSRMEDTEPFSAELLSAMMRLWGDSGIQECFNRSREYQLNDSAKYYLDSLDRIGAADYQPTEQDILRTRVKTTGIVETHFTFKNLHFRLFDVGGQRSERKKWIHCFEDVTAIIFCVALSGYDQVLHEDETTNRMHESLKLFDSICNNKWFTDTSIILFLNKKDIFEEKIKKSPLTICFPEYTGPSAFTEAVAYIQAQYESKNKSAHKEIYTHVTCATDTNNIQFVFDAVTDVIIAKNLRGCGLY
